# Positions count from the first letter of the chain named. Names may count otherwise. Where two headings read alike, the source gives them in different places.
# T1: mature myostatin (recombinant, dimeric) (mouse polyprotein used for in-house …, UniProt O08689 268-376)
# T1 construct: also called GDF-8; recombinant myostatin
# T1 sequence: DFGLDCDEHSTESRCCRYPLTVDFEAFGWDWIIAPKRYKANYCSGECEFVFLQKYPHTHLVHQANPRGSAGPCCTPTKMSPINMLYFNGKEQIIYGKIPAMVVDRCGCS
# B1: H0L0 (antibody, human IgG1, kappa)
# heavy: not shown
# light: DIQMTQSPSSLSASVGDRVTITCKASQDINSYLSWFQQKPGKAPKSLIYRANRLVDGVPSKFSGSGSGTDFTLTISSLQPEDFATYYCLQCDEFPLTFGQGTKLEIKRTVAAPSVFIFPPSDEQLKSGTASVVCLLNNFYPREAKVQWKVDNALQSGNSQESVTEQDSKDSTYSLSSTLTLSKADYEKHKVYACEVTHQGLSSPVTKSFNRGEC
# notes: Humanised, human IgG1 wild type/kappa
# B2: H2L2 C91S_G55S F100G_Y (antibody)
# chain 1: not shown
# chain 2: B1 light with F71Y, C91S
# B3: H2L2-C91S_F100G_Y Fc Disabled (antibody, human IgG1, kappa)
# heavy: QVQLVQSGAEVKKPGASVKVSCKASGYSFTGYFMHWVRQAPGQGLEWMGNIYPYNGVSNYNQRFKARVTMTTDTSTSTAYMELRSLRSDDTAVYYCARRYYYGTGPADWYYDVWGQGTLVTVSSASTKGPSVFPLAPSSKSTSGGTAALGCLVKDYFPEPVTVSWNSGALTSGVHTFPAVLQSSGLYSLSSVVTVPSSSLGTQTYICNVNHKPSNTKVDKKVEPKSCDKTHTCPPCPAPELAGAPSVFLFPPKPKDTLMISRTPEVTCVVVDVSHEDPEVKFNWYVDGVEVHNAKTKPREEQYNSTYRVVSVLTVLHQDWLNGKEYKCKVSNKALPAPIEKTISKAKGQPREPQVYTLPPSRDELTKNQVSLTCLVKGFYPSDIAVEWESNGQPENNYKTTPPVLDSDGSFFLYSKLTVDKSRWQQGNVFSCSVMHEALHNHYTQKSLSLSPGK
# light: B1 light with F71Y, C91S
# B4: H2L2 C91S_G55S F100G_Y-Fc disabled (antibody, human IgG1, kappa)
# heavy: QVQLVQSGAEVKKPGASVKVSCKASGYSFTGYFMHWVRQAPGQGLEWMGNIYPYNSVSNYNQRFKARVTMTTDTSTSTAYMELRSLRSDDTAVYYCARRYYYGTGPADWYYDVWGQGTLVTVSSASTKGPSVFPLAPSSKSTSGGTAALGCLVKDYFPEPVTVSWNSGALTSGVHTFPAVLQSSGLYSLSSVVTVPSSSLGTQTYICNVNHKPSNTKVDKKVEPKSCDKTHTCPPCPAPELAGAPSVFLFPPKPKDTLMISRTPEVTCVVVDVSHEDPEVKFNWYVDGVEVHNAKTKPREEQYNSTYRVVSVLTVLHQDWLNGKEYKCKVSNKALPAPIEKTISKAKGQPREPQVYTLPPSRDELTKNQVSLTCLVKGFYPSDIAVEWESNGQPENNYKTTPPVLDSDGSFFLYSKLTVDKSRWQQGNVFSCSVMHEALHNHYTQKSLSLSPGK
# light: B1 light with F71Y, C91S
# B5: H2L2 (antibody, human IgG1, kappa, V domains shown)
# VH: QVQLVQSGAEVKKPGASVKVSCKASGYSFTGYFMHWVRQAPGQGLEWMGNIYPYNGVSNYNQRFKARVTMTTDTSTSTAYMELRSLRSDDTAVYYCARRYYYGTGPADWYFDVWGQGTLVTVSS
# VL: DIQMTQSPSSLSASVGDRVTITCKASQDINSYLSWFQQKPGKAPKSLIYRANRLVDGVPSKFSGSGSGTDYTLTISSLQPEDFATYYCLQCDEFPLTFGQGTKLEIKR
# notes: as for B1
# B6: H2L2-C91S_W100E_F (antibody, human IgG1, kappa, V domains shown)
# VH: B5 VH with W109F
# VL: B5 VL with C91S
# B7: H2L2 N54D & C91S (H2L2-N54D-C91S) (antibody, human IgG1, kappa, V domains shown)
# VH: B5 VH with N55D
# VL: B5 VL with C91S
# B8: H2L2 N54D (H2L2-N54D) (antibody, human IgG1, kappa, V domains shown)
# VH: B5 VH with N55D
# VL: B5 VL
# B9: H2L2-C91S_F100G_N (antibody, human IgG1, kappa, V domains shown)
# VH: B5 VH with F111N
# VL: B5 VL with C91S
# B10: 10B3 chimera N54D (HCLC-N54D) (antibody, human IgG1, kappa, V domains shown)
# VH: EVQLQQSGPELVKPGASVKISCKASGYSFTGYFMHWVKQSHGNILDWIGNIYPYDGVSNYNQRFKAKATLTVDKSSSTAYMELRSLTSEDSAVYYCARRYYYGTGPADWYFDVWGTGTLVTVSS
# VL: DIKMTQSPSSMYASLRERVTITCKASQDINSYLSWFQQKPGKSPKTLIYRANRLVDGVPSRFSGSGSGQDYSLTISSLEYEDMGIYYCLQCDEFPLTFGAGTKLELKR
# B11: 10B3 chimera N54D & C91S (HCLC-N54D-C91S) (antibody, human IgG1, kappa, V domains shown)
# VH: B10 VH
# VL: B10 VL with C91S
# Tests used:
# [1] = target: T1, mature myostatin (recombinant, dimeric); experiment: BIAcore, high density myostatin surface, antibody analyte, 1:1 model (poor fits)
# Procedure: (§1) Purified H0L0, H1L2 and H2L2 bound recombinant myostatin by BIAcore™ Recombinant myostatin was immobilised at three different densities (low, medium and high, to give R-max values of approximately 35, 120 and 350 RU's respectively) onto a BIAcore™ chip. Antibodies were passed over at 256, 64, 16, 4 and 1 nM. 0 nM antibody was used for double referencing and data was fitted to the 1:1 model.
# [2] = target: T1, mature myostatin (recombinant, dimeric); experiment: BIAcore, low density myostatin surface, antibody analyte, 1:1 model
# Procedure: as §1
# [3] = target: T1, mature myostatin (recombinant, dimeric); experiment: BIAcore, medium density myostatin surface, antibody analyte, 1:1 model (poor fits)
# Procedure: as §1
# [4] = target: T1, mature myostatin (recombinant, dimeric); experiment: BIAcore, low density myostatin surface, methods as in 4.3
# [5] = target: T1, mature myostatin (recombinant, dimeric); experiment: cell-based or functional assay
# [6] = target: T1, mature myostatin (recombinant, dimeric); experiment: myostatin binding ELISA with purified antibody, 10 ng/well recombinant myostatin coated, anti-human kappa HRP, A490 (Examples 4.1, 4.2)
# Procedure: (§2) The myostatin binding ELISA was carried out approximately according to this protocol. A 96-well ELISA plate was coated at 4° C. overnight with 10 ng/well recombinant myostatin. This plate was then washed 3-times in wash buffer (PBS, 0.1% Tween-20). The wells were blocked for 1 hour at room temperature with block solution (PBS, 0.1% Tween-20+1% bovine serum albumin [BSA]), before washing 3-times in wash buffer. Antibodies were then titrated out to a suitable concentration range (approximately 100 to 0.001 μg/ml), added to the plate and incubated for 1 hour at room temperature. The plate was then washed 3-times in wash buffer. An anti-mouse IgG HRP-conjugated antibody (P0260 by Dako, this reagent was used according to the manufacturer's instructions) was used to detect binding of mouse antibodies, such as 10B3. An anti-human kappa light chain HRP-conjugated antibody (A7164 by Sigma Aldridge, this reagent was used according to the manufacturer's instructions) was used to detect binding of humanized or chimeric antibodies, such as 10B3 chimera or H0L0. The plate was then washed 3-times in wash buffer and developed with an OPD substrate (from Sigma, used according to the manufacturer's instructions) and read at 490 nm on a plate reader.
# [7] = target: T1, mature myostatin (recombinant, dimeric); experiment: myostatin binding ELISA with purified antibody, 10 ng/well recombinant myostatin coated, anti-human kappa HRP, A490 (Examples 4.1, 4.2); the text says the CHOK1 material was hard to quantify
# Procedure: as §2
# [8] = target: T1, mature myostatin (recombinant, dimeric); experiment: cell-based or functional assay; remark: listed apart in the source
# [9] = target: T1, mature myostatin (recombinant, dimeric); experiment: ActRIIb receptor binding assay (Example 2.5), mean IC50
# Procedure: Recombinant soluble ActRIIb (R&D Systems 339-RBB) was coated in wells of an ELISA plate at 1 μg/ml in carbonate buffer overnight at 4° C. Plates were blocked (see Block solution above at 2.3) and washed following standard ELISA protocols. In parallel, 2 nM biotinylated myostatin (in-house, as described in 1.1, biotinylated material) was pre-incubated with an antibody dilution series consisting of 10B3, 10B3C, and a negative control (IgG1 isotype control) for 2 hours at 37° C. The biotinylated myostatin:antibody reactions were then added to the ActRIIb coated plate for 1 hour at 37° C. Standard wash procedures were followed prior to addition of 1:1000 diluted streptavidin-HRP conjugate (Dako P0397) and a further 37° C. incubation for 1 hour. Plates were again washed and assayed at absorbance 490 nm following OPD substrate (Sigma) and acid stop solution treatment Inhibition curves and IC50 values for the inhibition of myostatin activity are shown in FIG. 5 and Table 8 respectively.
# H2L2 C91S_G55S F100G_Y, the developability enhanced molecule with the highest apparent potency in the A204 assay was Fc-disabled (by making the following substitutions, using EU numbering system: Leu 235 Ala; and Gly 237 Ala) as exemplified in SEQ ID NO: 99.
# [10] = target: T1, mature myostatin (recombinant, dimeric); experiment: cell-based or functional assay; remark: listed apart in the source
# [11] = target: T1, mature myostatin (recombinant, dimeric); experiment: cell-based or functional assay; remark: listed apart in the source
# [12] = target: T1, mature myostatin (recombinant, dimeric); experiment: myostatin binding ELISA after 48 h at 37 C in PBS (Examples 5.2, 4.2), A490
# [13] = target: T1, mature myostatin (recombinant, dimeric); experiment: myostatin binding ELISA after 48 h at 37 C in 1% ammonium bicarbonate pH 9.0 (Examples 5.2, 4.2), A490
# [14] = target: T1, mature myostatin (recombinant, dimeric); experiment: myostatin capture ELISA: plate coated with polyclonal anti-myostatin AF788, myostatin 1 µg/ml captured, purified antibody titrated, anti-human kappa HRP, A490 (Example 6.7)
# Procedure: A 96-well ELISA plate was coated at 4° C. overnight with 2.5 μg/ml polyclonal Antibody to Myostatin (R&D Systems AF788). This plate was then washed 3-times in wash buffer (PBS, 0.1% Tween-20) and blocked for 1 hour at room temperature with block solution (PBS, 0.1% Tween-20+1% bovine serum albumin [BSA]). Then, myostatin was added at 1 μg/ml in block buffer during 1 hour followed by 3-times in wash buffer. Antibodies were then titrated out to a suitable concentration range (approximately 10 to 0.01 μg/ml), added to the plate and incubated for 1 hour at room temperature. The plate was then washed 3-times in wash buffer. An anti-human kappa light chain HRP-conjugated antibody (Sigma A7164, used according to the manufacturer's instructions) was used to detect binding of humanized or chimeric antibodies, such as 10B3 chimera (HcLc) or H0L0. The plate was then washed 3-times in wash buffer and developed with an OPD substrate (according to the manufacturer's instructions) and read at 490 nm on a plate reader.
# The experiment is illustrated in FIG. 21 where H2L2-C91S, H0L0, HcLc (10B3 chimera) and a negative control monoclonal antibody were used as control antibodies. All eleven CDRH3 variant antibodies bound to recombinant myostatin in this ELISA. […]
# [15] = target: T1, mature myostatin (recombinant, dimeric); experiment: myostatin binding ELISA, 10 ng/well recombinant myostatin coated, CHOK1 supernatants, anti-human kappa HRP, A490 (Examples 5.1, 4.2)
# [16] = target: T1, mature myostatin (recombinant, dimeric); experiment: myostatin binding ELISA, CHOK1 supernatants
# Procedure: as §2, with “An anti-human kappa light chain HRP-conjugated antibody (A7164 by Sigma Aldridge, this reagent was used according to the manufacturer's instructions) was used to detect binding of humanized or chimeric antibodies, such as 10B3 chimera or H0L0.” left out
# The plasmids for each antibody were transfected into CHOK1 cells in duplicate and in two separate experiments. Antibodies produced in the CHOK1 cell supernatant were analysed for activity in the myostatin binding ELISA. […]
binder,measurement,setting,value
B1,Kd,[1],2.31 nM
same,koff,[1],0.000338 s⁻¹
same,kon,[1],146000 M⁻¹ s⁻¹
same,Kd,[2],8.26 nM
same,koff,[2],0.00662 s⁻¹
same,kon,[2],801000 M⁻¹ s⁻¹
same,Kd,[3],3.61 nM
same,koff,[3],0.00093 s⁻¹
same,kon,[3],258000 M⁻¹ s⁻¹
same,Kd,[4],22.7 nM
same,"Mean IC50, A204 in vitro activity assay",[5],10.2 nM
same,EC50 (read off the curve),[6],~0.1 µg/mL
same,EC50 (read off the curve),[7],~0.3 µg/mL
same,"Mean IC50, A204 in vitro activity assay",[8],10.1 nM
B2,IC50,[9],0.786 nM
same,"Mean IC50, A204 in vitro activity assay",[10],4.42 nM
B3,"Mean IC50, A204 in vitro activity assay",[11],1.24 nM
B4,IC50,[9],0.518 nM
B5,Kd,[1],1.47 nM
same,koff,[1],0.000216 s⁻¹
same,kon,[1],147000 M⁻¹ s⁻¹
same,EC50 (read off the curve),[12],~0.7 nM
same,Kd,[2],8.37 nM
same,koff,[2],0.00268 s⁻¹
same,kon,[2],321000 M⁻¹ s⁻¹
same,Kd,[3],3 nM
same,koff,[3],0.000737 s⁻¹
same,kon,[3],246000 M⁻¹ s⁻¹
same,Kd,[4],12 nM
same,"Mean IC50, A204 in vitro activity assay",[5],8.6 nM
same,EC50 (read off the curve),[6],~0.09 µg/mL
same,EC50 (read off the curve),[7],~0.1 µg/mL
same,"Mean IC50, A204 in vitro activity assay",[8],10.1 nM
same,EC50 (read off the curve),[13],~0.6 nM
B6,binding result,[14],binds
B7,binding result,[15],no binding
B8,binding result,[15],no binding (tested: about 33 nM)
B9,binding result,[14],binds
B10,binding result,[16],no binding
B11,binding result,[16],no binding

# Source: US20110256132A1 (published 2011)
